# Results from paper PMC3568533.
# B1: rat cytochrome P450 reductase (enzyme)
# chain: MGDSHEDTSATMPEAVAEEVSLFSTTDMVLFSLIVGVLTYWFIFRKKKEEIPEFSKIQTTAPPVKESSFVEKMKKTGRNIIVFYGSQTGTAEEFANRLSKDAHRYGMRGMSADPEEYDLADLSSLPEIDKSLVVFCMATYGEGDPTDNAQDFYDWLQETDVDLTGVKFAVFGLGNKTYEHFNAMGKYVDQRLEQLGAQRIFELGLGDDDGNLEEDFITWREQFWPAVCEFFGVEATGEESSIRQYELVVHEDMDVAKVYTGEMGRLKSYENQKPPFDAKNPFLAAVTANRKLNQGTERHLMHLELDISDSKIRYESGDHVAVYPANDSALVNQIGEILGADLDVIMSLNNLDEESNKKHPFPCPTTYRTALTYYLDITNPPRTNVLYELAQYASEPSEQEHLHKMASSSGEGKELYLSWVVEARRHILAILQDYPSLRPPIDHLCELLPRLQARYYSIASSSKVHPNSVHICAVAVEYEAKSGRVNKGVATSWLRAKEPAGENGGRALVPMFVRKSQFRLPFKSTTPVIMVGPGTGIAPFMGFIQERAWLREQGKEVGETLLYYGCRRSDEDYLYREELARFHKDGALTQLNVAFSREQAHKVYVQHLLKRDREHLWKLIHEGGAHIYVCGDARNMAKDVQNTFYDIVAEFGPMEHTQAVDYVKKLMTKGRYSLDVWS
# How the values were obtained:
# [1] = target: CYP3A4 K421A (N-terminus truncated) (human) (UniProt P08684)
# [2] = target: CYP3A4 K96A (N-terminus truncated) (human) (UniProt P08684)
# [3] = target: CYP3A4 wild-type (N-terminus truncated) (human) (UniProt P08684)
# [4] = target: CYP3A4 K421A (N-terminus truncated) (human) (UniProt P08684); assay: spectral titration
# [5] = target: CYP3A4 K96A (N-terminus truncated) (human) (UniProt P08684); assay: spectral titration
# [6] = target: CYP3A4 wild-type (N-terminus truncated) (human) (UniProt P08684); assay: spectral titration
# [7] = target: CYP3A4 K421A (N-terminus truncated) (human) (UniProt P08684); remark: listed apart in the source
# [8] = target: CYP3A4 K96A (N-terminus truncated) (human) (UniProt P08684); remark: listed apart in the source
# [9] = target: CYP3A4 wild-type (N-terminus truncated) (human) (UniProt P08684); remark: listed apart in the source
molecule,measurement,setting,value
Histidine-tagged recombinant human cyt b5 (commercial holo b5) (from UniProt P00167 1-134) (natural protein),"Ratio of Vmax + b5/− b5, testosterone 6β-hydroxylation, CYP:CPR:cyt b5 1:2:1",[1],2
same,"Ratio of Vmax + b5/− b5, testosterone 6β-hydroxylation, CYP:CPR:cyt b5 1:2:1",[2],1.3
same,"Ratio of Vmax + b5/− b5, testosterone 6β-hydroxylation, CYP:CPR:cyt b5 1:2:1",[3],1.7
reconstituted holo b5 (human cyt b5 made in-house) (from UniProt P00167 1-134) (natural protein),Kd,[4],287 nM
same,Kd,[5],346 nM
same,Kd,[6],140 nM
B1,"apparent K'm,CPR of TST 6β-hydroxylation at varying CPR concentrations",[7],70 nM
same,"apparent K'm,CPR of TST 6β-hydroxylation at varying CPR concentrations",[8],91 nM
same,"apparent K'm,CPR of TST 6β-hydroxylation at varying CPR concentrations",[9],41 nM
